In test [1] the target is T1, recombinant, soluble human ASGR-1 (human, UniProt P07306 62-291).
T1 construct: biotinylated in the binning assay; also called soluble huASGR-1; Soluble ASGR-1 (Amgen)
T1 sequence: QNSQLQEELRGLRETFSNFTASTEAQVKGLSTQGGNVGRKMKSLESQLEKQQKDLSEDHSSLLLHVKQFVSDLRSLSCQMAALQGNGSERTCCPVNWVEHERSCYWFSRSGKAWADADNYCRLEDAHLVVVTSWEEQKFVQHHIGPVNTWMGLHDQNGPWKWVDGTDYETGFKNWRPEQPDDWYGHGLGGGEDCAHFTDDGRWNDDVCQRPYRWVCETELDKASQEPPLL
The experiment in a line: Octet BLI dissociation, pH 5.6 plus calcium. The essentials:
(§1)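 Antibodies were captured on anti-human Fc biosensors, and soluble ASGR-1 (6 ug/ml) was associated for 2 min in Tris buffer containing 1 mM CaCl2 at pH 7.4, followed by 10 min dissociation under each test condition. The signal at the end of association was set as 100%. Percent ASGR-1 still bound after 1 min of dissociation was compared with the pH 7.4 plus calcium control, and >10% extra dissociation was scored as sensitive.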

For test [2], the target named is T1, recombinant, soluble human ASGR-1. The experiment in a line: Octet BLI dissociation, pH 5.6 minus calcium. The essentials: as §1
In general terms: Biolayer interferometry detects binding as a change in optical thickness at a sensor tip.

The target is the same in test [3]. Nature of the test: Octet BLI dissociation, pH 7.4 minus calcium. The essentials:
as §1

B1: 6D9 (antibody, V domains shown)
VH: EVQLVESGGGLVKPGGSLRLSCAASGFTFSNAWMNWVRLAPGKGLEWVGRIKSKTDGGTTDYAAPVKGRFTISRDDSENTLYLQMNSLKTEDTAVYYCSTDTGPIAARLAYYYYYAMDVWGQGTTVTVSS
VL: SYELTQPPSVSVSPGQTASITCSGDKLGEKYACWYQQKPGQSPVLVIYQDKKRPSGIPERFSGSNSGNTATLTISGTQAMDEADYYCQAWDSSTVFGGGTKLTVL
notes: hybridoma mAb
Consider B1, for which the “% Change Compared to pH 7.4 + Calcium” value in test [1] was found to be 25%; in test [2], 42%; in test [3] it was 14%.

B2: 60E8 (antibody, V domains shown)
VH: QVQLQESGPGLVRPSATLSLTCTVSGGSISRSSYYWGWIRQPPGKGLEWIGSIYYSGSASYNPSLKSRVTISVDTSENQFSLRLSSVTAADTAVYYCARLDSGWSFDYWGQGTLVTVSS
VL: DIQMTQSPSSLSASVGDRVTFTCRASQGIRNDLGWFQQKPGKAPKRLIYAASSLQSGVPSRFSGSGSGTEFTLTISSLQPEDFATYYCLQHSSYPLTFGGGTKVEIK
notes: hybridoma mAb
For B2, the results for the “% Change Compared to pH 7.4 + Calcium” value in test [1], in test [2] and in test [3] were 11%, 18% and 3%, respectively.

B3: 7F4 (antibody, V domains shown)
VH: QLQLQESGPGLVKPSETLSLTCTVSGGSISRSSYYWGWIRQPPGKGLEWIGNIYYSGATYYNPSLKSRVTISVDTSTNQFSLKLSSVTAADTAVYYCARHSGSWSLDYWGQGTLVTVSS
VL: DIQMTQSPSSLSASVGDRVTITCRTSQGIRNDLGWYQQKPGKAPKRLIYAASNLQSGVPSRFSGSGSGTEFTLTISSLQPEDFATYYCLQHSAYPLTFGGGTKVEIK
notes: hybridoma mAb
On to B3, for which the “% Change Compared to pH 7.4 + Calcium” value in test [1] amounted to 6%; in test [2], 9%; in test [3] it was 4%.

B4: 64B12 (antibody, V domains shown)
VH: QLQLQESGPGLVKPSETLSLTCTVSGVSISRSSYYWGWIRQPPGKGLEWIGSIYYSGSTSYNPSLKSRVTISVDTSKNQFSLKLSSVTAADTAVYYCARLDSGWSFDYWGQGTLVTVSS
VL: DIQMTQSPSSLSASVGDRVTITCRASQDISNYLNWYQQKPGTAPNLLISDASILETGVPSTFSGSGSGTDFTFTISSLQPEDIATYYCQQSDNLPCSFGQGTKVEIK
notes: hybridoma mAb
For B4, the “% Change Compared to pH 7.4 + Calcium” value in test [1] turned out to be 6%; in test [2] it was 7%; in test [3], 6%.

B5: 65F10 (antibody, V domains shown)
VH: QVQLVQSGAEVKKPGASVKVSCKASGYTFTGYHMHWVRQAPGQGLEWMGWINPNNGGTSYAQKFQDRVNMTRDTSISTAYMELSRLRSDDTAVYYCARDSRSSWDYWGQGTLVTVSS
VL: DIQMTQSPSSVSASVGDRVTITCRGGQGISTWLAWYQQKPGKAPKLLIYAASILQSGVPSRFRGRGSGTDFTLTISSLQPEDFATYYCQQGNIFPFTFGRGTKVDIK
notes: hybridoma mAb
Consider B5, for which the “% Change Compared to pH 7.4 + Calcium” value worked out at 18% in test [1], 37% in test [2] and 25% in test [3].

B6: 9G9 (antibody, V domains shown)
VH: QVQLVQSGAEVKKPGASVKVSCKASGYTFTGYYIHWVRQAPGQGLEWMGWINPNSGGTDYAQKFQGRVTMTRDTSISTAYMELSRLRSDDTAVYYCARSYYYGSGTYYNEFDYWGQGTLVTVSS
VL: QSVLTQPPSASGTPGQRVNMSCSGTNSNIGSYTVNWYQQLPGTAPKLLIYINNQRPSGVPDRFSGSKSGTSASLAISGLQSEDEADYYCAAWDDSLNGHVVFGGRTKLTVL
notes: hybridoma mAb
Consider B6, for which the “% Change Compared to pH 7.4 + Calcium” value came out at 38% in test [1], 55% in test [2] and 25% in test [3].

B7: 63A10 (antibody, V domains shown)
VH: EVQLVESGGGLVQPGGSLRLSCAASGFTFSSYSMNWVRQAPGKGLEWVSYISSSTSTIYYAASVKGRFTISRDNAKNSLYLQMNSLRDEDTAVYYCARDHRYYDSSGYYSDAFDIWGQGTMVTVSS
VL: NFMLTQPHSVSESPGKTVTISCTRSNGSIVSNYVQWYQQRPGSSPTTVIYEDKRRPSGVPDRFSGSIDSSSNSASLTISGLKTEDEADYYCQSYDSINVVFGGGTKLTVL
notes: hybridoma mAb
B7: the “% Change Compared to pH 7.4 + Calcium” value came to 3% in test [1], 47% in test [2] and 8% in test [3].

B8: 63G7 (antibody, V domains shown)
VH: EVQLVESGGGLVQPGGSLRLSCAASGFTFSSYSMNWVRQAPGKGLEWVSYISSSTSTIYYAASVKGRFTISRDNAKNSLYLQMNSLRDEDTAVYYCARDHRYYDSSGYYSDAFDIWGQGTMVTVSS
VL: NFMLTQPHSVSESPGKTVTISCTRSNGSIVSNYVQWYQQRPGSSPTTMIYEDSRRPSGVPDRFSGSIDSSSNSASLTISGLKTEDEADYSCQSYDGINVVFGGGTKLTVL
notes: hybridoma mAb
Take B8: the “% Change Compared to pH 7.4 + Calcium” value turned out to be 15% in test [1], 59% in test [2] and 20% in test [3].

B9: 147D10 (antibody, V domains shown)
VH: EVQLLESGGGLVQPGGSLRLSCAASGFTFSSYAMSWVRQAPGKGLEWVSAISGRGGNTFYADSVKGRFTISRDNSKNTLYLQMNSLRAEDTAVYYCAKKDYDYVWGSPYFDYWGQGTLVTVSS
VL: DIQMTQSPASVSASVGDRVTITCRASQNISNWLTWYQQKPGKAPKLLIYAASSLQSGVPSRFSGSGSGTDFTLSISSLQPEDFATYYCQQTDSFPFTFGPGTKVDVK
notes: hybridoma mAb
As to B9, the “% Change Compared to pH 7.4 + Calcium” value in test [1] worked out at 4%; in test [2], 11%; in test [3] it was 13%.

B10: 149D11 (antibody, V domains shown)
VH: EVQLLESGGGLVQPGGSLRLSCAASGFTFSSYAMSWVRQAPGKGLEWVSAISGRGGNTFYADSVKGRFTISRDNSKNTLYRQMNSLRAEDTAVYYCAKKDYDYVWGSPYFDYWGQGTLVTVSS
VL: DIQMTQSPASVSASVGDRVTITCRASQNISNWLTWYQQKPGKAPKLLIYAASSLQSGVPSRFSGSGSGTDFTLSISSLQPEDFATYYCQQTDSFPFTFGPGTKVDVK
notes: hybridoma mAb
Regarding B10, the results for the “% Change Compared to pH 7.4 + Calcium” value in test [1], in test [2] and in test [3] were 3%, 11% and 11%, respectively.

B11: 149F8 (antibody, V domains shown)
VH: EVQLLESGGGLVQPGGSLRLSCAASGFTFSSYAMSWVRQAPGKGLEWVSAISGRGGNTFYADSVKGRFTISRDNSKNTLYLQMNSLRAEDTAVYYCAKKDYDYVWGSPYFDYWGQGTLVTVSS
VL: DIQMTQSPASVSASVGDRVTITCRASQGISNWLAWYQQKPGKAPKLLIYAASSLQSGVPSRFSGNESGTDFTLSISSLQPEDFAIYYCQQTDSFPFTFGPGTKVDVK
notes: hybridoma mAb
As for B11, the “% Change Compared to pH 7.4 + Calcium” value in test [1] was -8%; in test [2] it was -1%; in test [3] it was 1%.

B12: 7E11 (antibody, V domains shown)
VH: QVQLVESGGGVVQPGRSLRLSCAASGFTFSSFGMHWVRQAPGKGLEWVAIIWHDGSNKYYADSVKGRFTISRDNSNNTLYLQMSSLRAEDTAVYYCARDLSMGGMDVWGQGTTVTVSS
VL: DIQMTQSPSSLSASVGDRVTIACRASQNIISYLNWYQQKPGKAPKFLIYTASSLQSGVPSRFSGSGSGTDFTLTISSLQPEDFAIYYCQQTYSTPLTFGGGTKVEIK
notes: hybridoma mAb
For the molecule B12, the “% Change Compared to pH 7.4 + Calcium” value in test [1] was 5%; in test [2], 14%; in test [3], 9%.

B13: 68G6 (antibody, V domains shown)
VH: QVQLVQFGGEVKKPGSSVKVSCKASGYTFTGYYMHWVRQAPGQGLEWMGSIYRNSGGTNYAQKFQGRVTMTRDKSISTAYMEKSRIRSDDTAVYYCARAFYYGSGTYYNEFDYWGQGTLVTVSS
VL: SYEVTQPPSVSVSPGQTASITCSGDKLGDKYTYWYQQKAGQSPFLVIYQDRKRPSGIPDRFSGSNSGNTATLTISGTQAMDAADFYCQAWDNSTAVFGGGTKLTVL
notes: hybridoma mAb
As for B13, the “% Change Compared to pH 7.4 + Calcium” value in test [1] came to 39%; in test [2], 47%; in test [3], 22%.

B14: 59F2 (antibody, V domains shown)
VH: EVQLVESGGGLVQPGGSLRLSCGASGFTFSSYSMNWVRQAPGKGLEWVSYISGSSNIIYYTDSVKGRFTISRDNAKNSLYLQMNSLRDEDTAVYYCARADTPMVLYFYGMDVWGQGTTVTVSS
VL: SYELTQPPSVSVSPGQTASITCSGDKLGDKYASWYQQRPGQSPVLVIYQDNKRPSGIPERFSGSNSGNTATLTISGTQAMDEADYYCQAWDNNTVVFGGGTKLTVL
notes: hybridoma mAb
As to B14, the “% Change Compared to pH 7.4 + Calcium” value in test [1] is 52%; in test [2], 74%; in test [3], 48%.

B15: 60D2 (antibody, V domains shown)
VH: EVQLVESGGGLVQPGGSLRLSCGASGFTFSSYSMNWVRQAPGKGLEWVSYISESSNIIYYTDSVKGRFTISRDNAMNSLYLQMNSLRDEDTAVYYCARADTPMVLYFYGMDVWGQGTTVTVSS
VL: SYELTQPPSVSVSPGQTASITCSGNKLGDKYASWYQQRPGQSPVLVIYQDNKRPSGIPERFSGSNSGNTATLTISGTQTMDEADYYCQAWDNNTVVFGGGTKLTVL
notes: hybridoma mAb
As to B15, the “% Change Compared to pH 7.4 + Calcium” value in test [1] was determined as 42%; in test [2], 49%; in test [3] it was 20%.

B16: 6G6 (antibody, V domains shown)
VH: QVQLVQSGAEVRKPGASVKVSCKASGYTFTNYDINWVRQATGQGPEWMGWMHPNSGNTGYAKKFQGRVTMTRNTSISAAYMVLSSLRSEDTAVYYCALSSGWYYFDYWGQGTLVTVSS
VL: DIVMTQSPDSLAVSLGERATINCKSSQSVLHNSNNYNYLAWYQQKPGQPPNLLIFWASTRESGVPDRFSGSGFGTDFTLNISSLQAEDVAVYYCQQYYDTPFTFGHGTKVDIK
notes: hybridoma mAb
As to B16, the results for the “% Change Compared to pH 7.4 + Calcium” value in test [1], in test [2] and in test [3] were -3%, 0% and 1%, respectively.

For the origin of these results see patent publication US20190248902A1 (published 2019).
